Source: patent publication US20030134779A1, “Method and composition for treatment and/or prevention of antibiotic-resistant microorganism infections” (priority 2002, published 2003)

Experiments:
[1] = test system: β-lactamase activity of S. aureus PC-1; assay: β-lactamase activity, nitrocefin assay, human LF; type: cell-based; conditions: incubation for 4 h
[2] = test system: β-lactamase activity of S. aureus SHY97-4320; assay: β-lactamase activity, nitrocefin assay, human LF; type: cell-based, Staphylococcus aureus
Method: Penicillin G was purchased from Novopharm Limited (Toronto, Ontario, Canada). […] Antibiotic stock solutions were always freshly prepared and diluted to the desired concentration in Mueller Hinton broth (MHB) medium (Difco Laboratories, Detroit, MI). β-Lactamase activity was measured using a quantitative spectrophotometric assay with the chromogenic cephalosporin nitrocefin. Bacterial cells were first exposed to penicillin and/or LF during 4 and 22-h in broth. At each time point, the number of cfu/ml were determined and cells aliquots were centrifuged.
The pellets were suspended in 10 mM HEPES buffer (pH 7.4) to an OD415 nm of 0.4 for PC-1 and 4 for strain SHY97-4320. Nitrocefin (100 μM) was added to 20 μl of cells in a final volume of 200 μl. Hydrolysis was measured at 486 nm on a Spectra Max 250 Microplate Spectrophotometer System of Molecular Device (Fisher Scientific, Ottawa, Canada). β-Lactamase activity was expressed as ΔO.D.486 nm/min and corrected for bacterial OD.

β-lactamase activity of S. aureus SHY97-4320, sequence (P00807 25-281): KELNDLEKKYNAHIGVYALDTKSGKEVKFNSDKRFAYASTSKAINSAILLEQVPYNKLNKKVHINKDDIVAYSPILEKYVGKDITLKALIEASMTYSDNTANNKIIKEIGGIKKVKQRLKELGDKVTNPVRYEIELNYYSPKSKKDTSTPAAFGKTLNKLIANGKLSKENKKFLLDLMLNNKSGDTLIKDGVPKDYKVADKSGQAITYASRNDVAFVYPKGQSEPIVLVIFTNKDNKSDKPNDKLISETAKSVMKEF
β-lactamase activity of S. aureus PC-1, sequence (P00807 25-281): as above

B1: human LF: Human LF (Sigma) (protein, UniProt P02788 20-710, looked up)
Lactotransferrin: GRRRSVQWCAVSQPEATKCFQWQRNMRKVRGPPVSCIKRDSPIQCIQAIAENRADAVTLDGGFIYEAGLAPYKLRPVAAEVYGTERQPRTHYYAVAVVKKGGSFQLNELQGLKSCHTGLRRTAGWNVPIGTLRPFLNWTGPPEPIEAAVARFFSASCVPGADKGQFPNLCRLCAGTGENKCAFSSQEPYFSYSGAFKCLRDGAGDVAFIRESTVFEDLSDEAERDEYELLCPDNTRKPVDKFKDCHLARVPSHAVVARSVNGKEDAIWNLLRQAQEKFGKDKSPKFQLFGSPSGQKDLLFKDSAIGFSRVPPRIDSGLYLGSGYFTAIQNLRKSEEEVAARRARVVWCAVGEQELRKCNQWSGLSEGSVTCSSASTTEDCIALVLKGEADAMSLDGGYVYTAGKCGLVPVLAENYKSQQSSDPDPNCVDRPVEGYLAVAVVRRSDTSLTWNSVKGKKSCHTAVDRTAGWNIPMGLLFNQTGSCKFDEYFSQSCAPGSDPRSNLCALCIGDEQGENKCVPNSNERYYGYTGAFRCLAENAGDVAFVKDVTVLQNTDGNNNEAWAKDLKLADFALLCLDGKRKPVTEARSCHLAMAPNHAVVSRMDKVERLKQVLLHQQAKFGRNGSDCPDKFCLFQSETKNLLFNDNTECLARLHGKTTYEKYLGPQYVAGITNLKKCSTSPLLEACEFLRK
For B1, the “reduction of β-lactamase activity” value [1] was 50%, the β-lactamase activity ([2]; 1 mg/ml human LF added at the same time as 8 μg/ml penicillin G, P<0.001) was “an important reduction of the β-lactamase activity” and the β-lactamase activity ([2]; human LF 1 mg/ml alone) was “no β-lactamase activity”.
